Assay results reported in publication PMC8042219, “Expression of Novel L-Leucine Dehydrogenase and High-Level Production of L-Tert-Leucine Catalyzed by Engineered Escherichia coli” (Frontiers in Bioengineering and Biotechnology, 2021).

T1: TbLeuDH (Staphylospora marina, UniProt Z9JLC0NN60)
T1 sequence (Z9JLC0NN60 1-365): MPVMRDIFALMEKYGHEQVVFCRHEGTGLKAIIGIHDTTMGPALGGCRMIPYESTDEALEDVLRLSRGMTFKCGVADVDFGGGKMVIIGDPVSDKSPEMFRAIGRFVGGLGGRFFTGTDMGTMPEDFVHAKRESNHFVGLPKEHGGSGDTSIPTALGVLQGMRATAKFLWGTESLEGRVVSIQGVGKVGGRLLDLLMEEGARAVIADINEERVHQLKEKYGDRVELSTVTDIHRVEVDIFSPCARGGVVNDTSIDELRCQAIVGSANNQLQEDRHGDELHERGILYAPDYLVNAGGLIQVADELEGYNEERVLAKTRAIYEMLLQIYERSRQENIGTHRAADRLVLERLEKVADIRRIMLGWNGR

T2: CsLeuDH (Caldanaerobacter subterraneus, UniProt U5CQF4)
T2 construct: gene O163_07585
T2 sequence (U5CQF4 1-355): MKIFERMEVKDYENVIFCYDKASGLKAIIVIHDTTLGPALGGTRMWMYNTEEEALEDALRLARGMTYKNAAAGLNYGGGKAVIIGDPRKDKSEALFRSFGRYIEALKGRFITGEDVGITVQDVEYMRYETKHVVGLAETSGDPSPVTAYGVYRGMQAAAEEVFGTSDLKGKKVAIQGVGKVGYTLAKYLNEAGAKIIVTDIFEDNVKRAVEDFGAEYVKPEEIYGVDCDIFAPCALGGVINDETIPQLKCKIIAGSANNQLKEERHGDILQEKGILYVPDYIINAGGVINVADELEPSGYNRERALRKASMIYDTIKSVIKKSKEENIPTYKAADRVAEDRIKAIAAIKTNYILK

T3: BbLeuDH (Bdellovibrio bacteriovorus, UniProt A0A1Z3N8C0)
T3 construct: gene B9G79_08965
T3 sequence (A0A1Z3N8C0 1-376): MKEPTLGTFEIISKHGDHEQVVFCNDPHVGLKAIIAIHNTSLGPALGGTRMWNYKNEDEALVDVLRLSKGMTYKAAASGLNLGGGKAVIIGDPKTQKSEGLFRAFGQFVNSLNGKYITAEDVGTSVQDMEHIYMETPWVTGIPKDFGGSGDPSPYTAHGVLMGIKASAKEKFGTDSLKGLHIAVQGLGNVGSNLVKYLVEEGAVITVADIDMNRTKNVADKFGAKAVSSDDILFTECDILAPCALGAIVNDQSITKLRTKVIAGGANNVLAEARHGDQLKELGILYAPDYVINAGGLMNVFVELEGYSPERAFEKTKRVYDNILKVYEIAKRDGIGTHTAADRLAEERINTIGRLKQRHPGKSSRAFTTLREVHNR

B1: PfLeuDH (Planifilum fimeticola) (protein)
chain: MKWFDYMERYDYEQLIFCQDKNSGLKAIIAIHDTTLGPALGGVRMWKYDSEEEAIVDALRLARGMTYKAAAAGLNLGGGKTVIIGDPRKDKNEEMFRALGRFIQGLNGRYITAEDVGTTEEDMDIIHQETRFVTGVSPAFGSSGNPSPVTAYGVYRGMKAAAKIAFGSDSLEGKTVAVQGVGSVAYHLCKHLHEEGARLIVTDIVRENVERAVRDFGAESVAPDKIYDVECDIFSPCALGAIINDETLPRLKCRVVAGSANNQLKEERHGDRLEELGIIYVPDYVINAGGLINVADELFGYNRERAMKKVETIYDNVLRVFEIAKRDGIPSYKAADRMAEERIESLTRSRSTFLRNERNVLNMV

Experiments:
TbLeuDH = molecular target: T1, TbLeuDH; assay: NADH absorbance at […] nm, specific activity; format: biochemical; conditions: reductive amination, 2 mM TMP, 0.1 mM NADH, 500 mM NH4Cl-NH3 buffer pH 9.5, 30 °C
CsLeuDH = molecular target: T2, CsLeuDH; assay: NADH absorbance at […] nm, specific activity; format: biochemical; conditions: reductive amination, 2 mM TMP, 0.1 mM NADH, 500 mM NH4Cl-NH3 buffer pH 9.5, 30 °C
BbLeuDH = molecular target: T3, BbLeuDH; assay: NADH absorbance at […] nm, specific activity; format: biochemical; conditions: reductive amination, 2 mM TMP, 0.1 mM NADH, 500 mM NH4Cl-NH3 buffer pH 9.5, 30 °C
purified protein [1] = substrate: CC(C)C[C@H](N)C(=O)O; assay: purified protein; format: biochemical, Planifilum fimeticola; conditions: oxidative deamination, L-leucine varied 0.1-3 mM, 1 mM NAD+
purified protein [2] = substrate: NC(=O)c1ccc[n+]([C@@H]2O[C@H](COP(=O)(O)OP(=O)(O)OC[C@H]3O[C@@H](n4cnc5c(N)ncnc54)[C@H](O)[C@@H]3O)[C@@H](O)[C@H]2O)c1; assay: purified protein; format: biochemical, Planifilum fimeticola; conditions: oxidative deamination, NAD+ varied 0.1-4 mM, 4 mM L-leucine; varied: cofactor
purified protein [3] = substrate: CC(C)(C)C(=O)C(=O)O; assay: purified protein; format: biochemical, Planifilum fimeticola; conditions: reductive amination, TMP varied 1-20 mM, 0.3 mM NADH; standard assay 500 mM NH4Cl-NH3 buffer pH 9.5, 30 °C; pH 9.5; 30.0 °C
purified protein [4] = substrate: NC(=O)C1=CN([C@@H]2O[C@H](COP(=O)(O)OP(=O)(O)OC[C@H]3O[C@@H](n4cnc5c(N)ncnc54)[C@H](O)[C@@H]3O)[C@@H](O)[C@H]2O)C=CC1; assay: purified protein; format: biochemical, Planifilum fimeticola; conditions: reductive amination, NADH varied 0.05-0.35 mM, 40 mM TMP; standard assay 500 mM NH4Cl-NH3 buffer pH 9.5, 30 °C; pH 9.5; 30.0 °C; varied: cofactor

Molecule	NADH absorbance at 340 nm, specific activity (TbLeuDH)	NADH absorbance at 340 nm, specific activity (CsLeuDH)	NADH absorbance at 340 nm, specific activity (BbLeuDH)	Km (purified protein [1])	Vmax (purified protein [1])	kcat (purified protein [1])	kcat/Km (purified protein [1])	Km (purified protein [2])	Vmax (purified protein [2])	kcat (purified protein [2])	kcat/Km (purified protein [2])	Km (purified protein [3])	Vmax (purified protein [3])	kcat (purified protein [3])	kcat/Km (purified protein [3])	Km (purified protein [4])	Vmax (purified protein [4])	kcat (purified protein [4])	kcat/Km (purified protein [4])
CC(C)(C)C(=O)C(=O)O [Trimethylpyruvate]	All four soluble leucine dehydrogenases have catalytic activity for TMP	All four soluble leucine dehydrogenases have catalytic activity for TMP	All four soluble leucine dehydrogenases have catalytic activity for TMP																
B1				100 µM	3.49 µmol/min/mg	2.33 s⁻¹	23300 M⁻¹ s⁻¹	110 µM	2.72 µmol/min/mg	1.81 s⁻¹	16400 M⁻¹ s⁻¹	3080 µM	58.6 µmol/min/mg	39.1 s⁻¹	12700 M⁻¹ s⁻¹	60 µM	9.09 µmol/min/mg	6.06 s⁻¹	101000 M⁻¹ s⁻¹
